Measurements taken from the supplement of paper PMC11246515.
± gives the standard deviation of the averaged measurements.

Experiment: total protein half-life in vivo (active degradation + dilution); higher = more stable protein
[1] = E. coli NCM3722 delta-clpP, growth: N-lim chemostat, doubling time 6 h
[2] = E. coli NCM3722 delta-hslV, growth: N-lim chemostat, doubling time 6 h
[3] = E. coli NCM3722 delta-lon, growth: N-lim chemostat, doubling time 6 h
[4] = E. coli NCM3722 delta-smpB, growth: N-lim chemostat, doubling time 6 h
[5] = wild type E. coli NCM3722, growth: C-lim chemostat, doubling time 3 h
[6] = wild type E. coli NCM3722, growth: C-lim chemostat, doubling time 6 h
[7] = wild type E. coli NCM3722, growth: C-lim chemostat, doubling time 12 h
[8] = wild type E. coli NCM3722, growth: N-lim chemostat, doubling time 6 h
[9] = wild type E. coli NCM3722, growth: P-lim chemostat, doubling time 12 h
[10] = E. coli NCM3722 delta-clpP delta-lon delta-hslV, growth: N-lim chemostat, doubling time 6 h
[11] = wild type E. coli NCM3722, growth: N-lim chemostat, doubling time 12 h
[12] = wild type E. coli NCM3722, growth: P-lim chemostat, doubling time 6 h

Sequence | total protein half-life in vivo [1] [h] | total protein half-life in vivo [2] [h] | total protein half-life in vivo [3] [h] | total protein half-life in vivo [4] [h] | total protein half-life in vivo [5] [h] | total protein half-life in vivo [6] [h] | total protein half-life in vivo [7] [h] | total protein half-life in vivo [8] [h] | total protein half-life in vivo [9] [h] | total protein half-life in vivo [10] [h] | total protein half-life in vivo [11] [h] | total protein half-life in vivo [12] [h]
MSNILIINGAKKFAHSNGQLNDTLTEVADGTLRDLGHDVRIVRADSDYDVKAEVQNFLWADVVIWQMPGWWMGAPWTVKKYIDDVFTEGHGTLYASDGRTRKDPSKKYGSGGLVQGKKYMLSLTWNAPMEAFTEKDQFFHGVGVDGVYLPFHKANQFLGMEPLPTFIANDVIKMPDVPRYTEEYRKHLVEIFG [P0AEY5] | 1.93 ± 0.14 | 1.94 ± 0.091 | 2.18 ± 0.044 | 2.27 ± 0.32 | 3.31 ± 0.43 | 4.76 ± 0.2 | 6.6 ± 0.75 | 2.12 ± 0.18 | 8.32 ± 0.26 |  |  | 
MKKIECACNFLMDKDAQGYIDLSDLDLTSCHFKGDVISKVSFLSSNLQHVTFECKEIGDCNFTTAIVDNVIFRCRRLHNVIFIKASGECVDFSKNILDTVDFSQSQLGHSNFRECQIRNSNFDNCYLYASHFTRAEFLSAKEISFIKSNLTAVMFDYVRMSTGNFKDCITEQLELTIDYSDIFWNEDLDGYINNIIKMIDTLPDNAMILKSVLAVKLVMQLKILNIVNKNFIENMKKIFSHCPYIKDPIIRSYIHSDEDNKFDDFMRQHRFSEVNFDTQQMIDFINRFNTNKWLIDKNNNFFIQLIDQALRSTDDMIKANVWHLYKEWIRSDDVSPIFIETEDNLRTFNTNELTRNDNIFILFSSVDDGPVMVVSSQRLHDMLNPTKDTNWNSTYIYKSRHEMLPVNLTQETLFSSKSHGKYALFPIFTASWRAHRIMNKGV |  |  |  |  |  |  | 11.2 |  |  |  |  | 
MKLRLSALALGTTLLVGCASSGTDQQGRSDPLEGFNRTMYNFNFNVLDPYIVRPVAVAWRDYVPQPARNGLSNFTGNLEEPAVMVNYFLQGDPYQGMVHFTRFFLNTILGMGGFIDVAGMANPKLQRTEPHRFGSTLGHYGVGYGPYVQLPFYGSFTLRDDGGDMADGFYPVLSWLTWPMSVGKWTLEGIETRAQLLDSDGLLRQSSDPYIMVREAYFQRHDFIANGGELKPQENPNAQAIQDDLKDIDSE | 6.05 ± 0.062 |  |  | 5.99 ± 0.31 | 3.153 ± 0.018 | 6.61 ± 1.3 | 13.9 ± 0.49 | 6.37 ± 0.039 | 13.4 ± 0.97 | 6.54 ± 0.28 | 12.59 ± 0.014 | 5.98 ± 0.64
MSKAGASLATCYGPVSADVIAKAENIRLLILDVDGVLSDGLIYMGNNGEELKAFNVRDGYGIRCALTSDIEVAIITGRKAKLVEDRCATLGITHLYQGQSNKLIAFSDLLEKLAIAPENVAYVGDDLIDWPVMEKVGLSVAVADAHPLLIPRADYVTRIAGGRGAVREVCDLLLLAQGKLDEAKGQSI [P0ABZ4] | 5.24 ± 0.48 | 4.75 | 4.98 ± 0.53 | 4.36 ± 0.21 |  | 4.33 ± 1.4 | 11.2 ± 2 | 4.81 | 13.2 ± 0.32 | 6.03 ± 0.62 | 7.52 ± 0.99 | 6.58
MPLSAQQLAAQKNLSYVLAEKLAQRILKGEYEPGTILPGEIELGEQFGVSRTAVREAVKTLTAKGMVLPRPRIGTRVMPQSNWNFLDQELLTWWMTEENFHQVIDHFLVMRICLEPQACLLAATVGTAEQKAHLNTLMAEMAALKENFRRERWIEVDMAWHEHIYEMSANPFLTSFASLFHSVYHTYFTSITSDTVIKLDLHQAIVDAIIQSDGDAAFKACQALLRSPDK | 6.01 | 5.31 | 6.07 ± 0.2 | 5.77 ± 0.38 | 2.88 | 6.4 ± 1.1 | 12.2 | 3 | 11.4 ± 0.35 | 4.46 ± 0.8 | 10.5 | 4.72 ± 1.2
MRNLVKYVGIGLLVMGLAACDDKDTNATAQGSVAESNATGNPVNLLDGKLSFSLPADMTDQSGKLGTQANNMHVWSDATGQKAVIVIMGDDPKEDLAVLAKRLEDQQRSRDPQLQVVTNKAIELKGHKMQQLDSIISAKGQTAYSSVILGNVGNQLLTMQITLPADDQQKAQTTAENIINTLVIQ [P0AEE1] | 5.96 ± 0.21 | 5.42 ± 0.085 | 6.24 ± 0.22 | 6.05 ± 1.3 |  |  | 11.3 ± 1 | 5.6 ± 0.16 | 10.9 ± 0.47 | 6.11 ± 1.1 | 10.9 ± 0.59 | 5.55 ± 1.2
MTDNTYQPAKVWTWDKSAGGAFANINRPVSGPTHEKTLPVGKHPLQLYSLGTPNGQKVTIMLEELLALGVTGAEYDAWLIRIGDGDQFSSGFVEVNPNSKIPALRDHTHNPPIRVFESGSILLYLAEKFGYFLPQDLAKRTETMNWLFWLQGAAPFLGGGFGHFYHYAPVKIEYAINRFTMEAKRLLDVLDKQLAQHKFVAGDEYTIADMAIWPWFGNVVLGGVYDAAEFLDAGSYKHVQRWAKEVGERPAVKRGRIVNRTNGPLNEQLHERHDASDFETNTEDKRQG | 5.1 ± 0.095 | 4.77 ± 0.093 | 5.02 ± 0.099 | 4.78 ± 0.57 | 3.18 ± 0.21 | 5.63 ± 0.16 | 9.78 ± 2.2 | 5.31 ± 0.2 | 11.8 ± 0.8 | 5.11 ± 0.38 | 9.72 ± 3.6 | 5.6 ± 0.21
MSNIWSKEETLWSFALYGTAVGAGTLFLPIQLGSAGAVVLFITALVAWPLTYWPHKALCQFILSSKTSAGEGITGAVTHYYGKKIGNLITTLYFIAFFVVVLIYAVAITNSLTEQLAKHMVIDLRIRMLVSLGVVLILNLIFLMGRHATIRVMGFLVFPLIAYFLFLSIYLVGSWQPDLLTTQVEFNQNTLHQIWISIPVMVFAFSHTPIISTFAIDRREKYGEHAMDKCKKIMKVAYLIICISVLFFVFSCLLSIPPSYIEAAKEEGVTILSALSMLPNAPAWLSISGIIVAVVAMSKSFLGTYFGVIEGATEVVKTTLQQVGVKKSRAFNRALSIMLVSLITFIVCCINPNAISMIYAISGPLIAMILFIMPTLSTYLIPALKPWRSIGNLITLIVGILCVSVMFFS |  |  |  | 5.13 |  |  |  |  |  |  |  | 
MKPTTLLLIFTFFAMPGIVYAESPFSSLQSAKEKTTVLQDLRKICTPQASLSDEAWEKLMLSDENNKQHIREAIVAMERNNQSNYWEALGKVECPDM [Q2M7X4] |  |  |  |  |  |  |  |  |  | 4.53 |  | 
